Reference: US9493781B2, “Synthetic brassica-derived chloroplast transit peptides” (DOW AGROSCIENCES LLC, priority 2012, dated 2016)

Tests used:
[1] = system: chloroplasts of tobacco cells; experiment: Tobacco transient assay: confocal microscopy of TraP-YFP localization; assay type: cell-based, Nicotiana benthamiana; details: Agrobacterium-infiltrated tobacco leaves
From the text: The Trap8 and TraP9 chimeric chloroplast transit peptide sequences were initially tested via a transient in planta assay. Polynucleotide sequences which encode the Trap8 (SEQ ID NO:5) and TraP9 (SEQ ID NO:6) chimeric chloroplast transit peptide sequences were synthesized. A linker sequence (SEQ ID NO:7) was incorporated between the TraP sequence and the yfp coding sequence. The resulting constructs contained two plant transcription units (PTU). The first PTU was comprised of the Arabidopsis thaliana Ubiquitin 10 promoter (AtUbi10 promoter; Callis, et al., (1990) J. Biol. Chem., 265: 12486-12493), TraP-yellow fluorescent protein fusion gene (TraP-YFP; US Patent App. 2007/0298412), and Agrobacterium tumefaciens ORF 23 3′ untranslated region (AtuORF23 3′UTR; U.S. Pat. No. 5,428,147). […]
Agrobacterium-infiltrated tobacco leaves were severed from the plant, and placed into a petri-dish with water to prevent dehydration. The infiltrated tobacco leaves were observed under blue light excitation with long-pass filter glasses held in place using a Dark Reader Hand Lamp™ (Clare Chemical Research Co.; Dolores, Colo.) to identify undamaged areas of the leaf that were successfully expressing the YFP reporter proteins. […]

[2] = system: chloroplasts of maize protoplasts; experiment: Maize protoplast transient assay: microscopy of TraP8-YFP; assay type: cell-based, Zea mays; details: B104 maize protoplasts, 12 hours after transfection
From the text: The Trap8 chimeric chloroplast transit peptide-encoding polynucleotide sequence (SEQ ID NO:5) and the linker-encoding polynucleotide sequence (SEQ ID NO:7) were cloned upstream of the yellow fluorescent protein gene and incorporated into construct pDAB106597 (FIG. 8) for testing via the maize protoplast transient in planta assay. The resulting constructs contained a single plant transcription unit (PTU). The PTU was comprised of the Zea mays Ubiquitin 1 promoter (ZmUbi1 promoter; Christensen, A., Sharrock R., and Quail P., (1992) Maize polyubiquitin genes: structure, thermal perturbation of expression and transcript splicing, and promoter activity following transfer to protoplasts by electroporation, Plant Molecular Biology, 18:675-689), TraP-yellow fluorescent protein fusion gene (TraP8-YFP; US Patent App. 2007/0298412), and Zea mays Peroxidase 5 3′ untranslated region (ZmPer5 3′UTR; U.S. Pat. No. 6,384,207). The constructs were confirmed via restriction enzyme digestion and sequencing.
Seed of Zea mays var. […]
Transfection of 100 to 500 μl of protoplasts (1−5×10^5) was completed by adding the protoplasts to a 2 ml microfuge tube containing about 40 μg of plasmid DNA (pDAB106597), at room temperature. […] Fluorescence of YFP was viewed by microscopy after 12 hours of incubation. […]

B1: TraP8: chimeric chloroplast transit peptide SEQ ID NO:3; N-terminus from Brassica napus EPSPS CTP, C-terminus from Brassica rapa (protein)
chain: MAQSSRICHGVQNPCVIISNLSKSNQNKSPFSVSLKTHQQQRRAYQISSWGLKKSNNGSVIRPVK
modifications: TraP8 chimeric chloroplast transit peptide
notes: N-terminus from Brassica napus EPSPS CTP, C-terminus from Brassica rapa
[1]
  Localization of YFP fluorescence in tobacco leaf cells: accumulated within the chloroplasts
[2]
  Localization of YFP fluorescence in maize protoplasts: accumulated within the chloroplasts
